The series can be described thus: yeast display, Sf9 membrane polyspecificity reagent, FACS + sequencing; frameworks hold sequencing errors. The essentials: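 Nanobodies from a synthetic yeast display library (Saccharomyces cerevisiae BJ5465), induced 36–48 hours with galactose, were stained 1 hour at 4 °C with 10% biotinylated, detergent-solubilized Sf9 membrane reagent, enriched on streptavidin microbeads, then FACS-sorted. Anti-HA (expression) and streptavidin (reagent binding) fluorescence set low and high (top ~1%) gates. Polyreactivity labels come from the gate of origin. Genes were colony-PCR amplified, MiSeq 2 × 250 sequenced and filtered by CDR length.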
Consider “QVQLVESGGGLVQAGGSLRLSCAASGGTFKTNAMGWYRQAPGKERELVAAITGSGTSTYYADSVKGRFTISRDNAKYTVYLQMNSLKPEDTAVYYCAADKLYQPGIGDDYWGQGTQVTVSS”, for which the “polyreactivity (PSR sort gate)” value is “low polyreactivity”. For the sequence “QVQLVESGGGLVQAGGSLRLSCAASGGTFLFYGMGWYRQAPGKERELVAVITWSGGSTYYADSVKGRFTISRDNAKNTVYLQMNSLKPEDTAVYYCNAANTGSPDYQSIGYNFNYWGQGTQVTVSS”, the “polyreactivity (PSR sort gate)” value is “low polyreactivity”. For “QVQLVESGGGLVQAGGSLRLSCAASGGTFLGNAMGWYRQAPGKERELVADITSGGSTNYADSVKGRFTITRDNAKNTVYLQMNSLKPEDTAVYYCNARWWFQLYYYSTFAGYNYWGQGTQVTVSS”, the “polyreactivity (PSR sort gate)” value is “low polyreactivity”.

Consider “QVQLVESGGGLVQAGGSLRLSCAASGGTFLYYAMGWYRQAPGKERELVAAISSSTGSTNYADSVKGRFTISRDNAKNTVYLQMNSLKPEDTAVYYCAAAPHRHSWYYTRHPYFCMDYWGQGTQVTVSS”, for which the “polyreactivity (PSR sort gate)” value is on record as “low polyreactivity”. The same measure for “QVQLVESGGGLVQAGGSLRLSCAASGGTFNGNTMGWYRQAPGKERELVAVIDWSGGSTYYADSVKGRFTISRDNAKNTVYLQMNSLKPEDTAVYYYNADSDAQFREPKGLYYWGQGTQVTVSS”: “low polyreactivity”; for “QVQLVESGGGLVQAGGSLRLSCAASGGTFNQYAMGWYRQAPGKEREFVASISRRGGSTYYADSVKGRFTISRDNAKNTVYLQMNSLKPEDTAVYYCAADAFFRLDYYYWGQGTQVTVSS”: “high polyreactivity”; for “QVQLVESGGGLVQAGGSLRLSCAASGGTFNTYAMGWYRQAPGKERELVAAITSSGGSTFYADSVKGRFTISRDNAKNTVYLQMNSLKPEDTAVYYCAAKSYWTIVYRHPGYYYWGQGTQVTVSS”: “low polyreactivity”. In the case of “QVQLVESGGGLVQAGGSLRLSCAASGGTFPWYTMGWYRQAPGKERELFAAISWRGGRTYYADSVKGRFTISRDNAKNTVYLQMNSLKPEDTAVYYCAATPRYRVYYGSYYLRYDYWGQGTQVTVSS” it was “high polyreactivity”; in that of “QVQLVESGGGLVQAGGSLRLSCAASGGTFQAYAMGWYSQAPGKDREFDAAITAGGGSTSYADSVKGRFTISRDNAKNTVDLQLNRLKPEDSAAYYCAVDGGFPVTDYDYWGQGTQVTVST”, “low polyreactivity”. In the case of “QVQLVESGGGLVQAGGSLRLSCAASGGTFQYYTMGWYRQAPGKERELVAGISSGGSTYYPDSVKGRFTISRDNAMNTVYLQMNRLKPEVTAVYYCNAVSRRKTYGYRIIKYDYWGQGTQVTVSS”, the “polyreactivity (PSR sort gate)” value is listed as “high polyreactivity”.

Take “QVQLVESGGGLVQAGGSLRLSCAASGGTFRAYVMGWYRQAPGKERELVAAISRSGTRTYYADSVKGRFTISRDNAKNTVYSQLNSLKPEDTAVYYCAAAANSWLFDYWGQGTQVTVSS”: the “polyreactivity (PSR sort gate)” value was “high polyreactivity”. Regarding “QVQLVESGGGLVQAGGSLRLSCAASGGTFRGYAMGWYRQATGKERELVAAITYSGGRTYYADSVKGRFTISRDNAKNTVYLQMNSLKPEDTAVYYCNAQSSGRLSYRYDYWGQGTQVTVSS”, the “polyreactivity (PSR sort gate)” value is listed as “high polyreactivity”. The same measure for “QVQLVESGGGLVQAGGSLRLSCAASGGTFRKNTMGWYRQAPGKERELVAAITRRADRTYYADSVKGRFTISRDNAKNTVYLQMNSLKPEDTAVYYCNAPPPPTKVGGYDYWGQGTQVTVSS”: “high polyreactivity”; for “QVQLVESGGGLVQAGGSLRLSCAASGGTFRNYAMGWYRQAPGKERELVAAITTGTITNYADSVKGRFTISRDNAKNTVYLQLNSLKPEDTAVYYCNAGAFYSDPYVYWGQGNQVTVSS”: “low polyreactivity”; for “QVQLVESGGGLVQAGGSLRLSCAASGGTFRRNAMGWYRQAPGKERELVAAISFNGDRTYYADSVKGRFTISRDNAKNTVYLQMNSLKPEDTAVYYCNKASWWWGGYTYPHEYWGQGTQVTVSS”: “low polyreactivity”. In the case of “QVQLVESGGGLVQAGGSLRLSCAASGGTFRTYAMGWYRQAAGKERELVAAITGSGGRTYYADSVKGRFTISRDNAKNTVYLQMNSLKPEDTAVYDCNTGPVYQGYHWGQGTQVTVSS” it was “high polyreactivity”; in that of “QVQLVESGGGLVQAGGSLRLSCAASGGTFRVYAMGWYRKAPGKERELVAAITGRGGSTYYADSVKGRFTISRDNAKNTVYLQMNSLKPEDTAVYDCAKDPVTTYYKYDYWGQGTQVTVSS”, “low polyreactivity”; in that of “QVQLVESGGGLVQAGGSLRLSCAASGGTFRWNARGWYRQAPGKERELVAAITKSGGSTYYADSVKGRFTISRDIAKNTVYLQMNSLKPEDTAVYYCATDYLRRRDYWGQGTQVTVSS”, “high polyreactivity”.

Take “QVQLVESGGGLVQAGGSLRLSCAASGGTFSAYAMGWYRQAPGKERELVAAISYRGGRTYYADSVKGRFTISRDNAKNTVYLQMNSLKPEDTAVYYCNARRGSATHSVTARRGYWGQGTQVTVSS”: the “polyreactivity (PSR sort gate)” value is reported as “high polyreactivity”.

Turning to “QVQLVESGGGLVQAGGSLRLSCAASGGTFSCYAMGWYRQAPGKERELVAAITRRGGRTYYADSVKGRFTISRDNAKNTVYLQMNSLKPEDTAVYYCNTDYKFDYVGFSTWVVRYDYWGQGTQVTVSS”, the “polyreactivity (PSR sort gate)” value is on record as “low polyreactivity”. The same measure for “QVQLVESGGGLVQAGGSLRLSCAASGGTFSLNAMGWSRQAPGKERELVAAITYSTGRTHYADSVKGRFTISRDNAKNTVYLQMNSLKPEDTAVYYCAARVYGTKMDYWGQGTQVTVSS”: “high polyreactivity”. In the case of “QVQLVESGGGLVQAGGSLRLSCAASGGTFSPNTMGWYRHAPGKERELVAAISSSGSTSYADSVKGRFTISRDNAKNTVYLQMNSLKPEDTAVYYCNADDTISYYASGFDNYDYWGQGSQVTVSS” it was “low polyreactivity”; in that of “QVQLVESGGGLVQAGGSLRLSCAASGGTFSRNAMGWYRQAPGKERELVAAINTSGVSTSYADSVKGRFTISRDNAKNTVYLQMNSLKPEDTAVYYCAAETSSAEVDYWGQGTQVTVSS”, “low polyreactivity”. In the case of “QVQLVESGGGLVQAGGSLRLSCAASGGTFSRNAMGWYRQAPGKERELVAAITWSGTRTYYADSVKGRFTISRDNAKNTVYLQMNSLKPEDTAVYYCATKGRRSADDTLLDYWGQGTQVTVSS” it was “high polyreactivity”. In the case of “QVQLVESGGGLVQAGGSLRLSCAASGGTFSTNTMGWYRQAPGKEMELVAAITEGTGNTYYADSVKGRFTISRDTAKNTVYLQMNSLKPEDTAVYDCATVAYSGSDFSGSAGAGDYWGQGTQVTVSS”, the “polyreactivity (PSR sort gate)” value is “low polyreactivity”. In the case of “QVQLVESGGGLVQAGGSLRLSCAASGGTFSTSAMGWYRQAPGKERELVAAISLSGVRTYYADSVKGRFTISRDNAKNTVYLQMNSLKAEVTAVDYCATRPYSPWRLYYWGQGTQVTGSS” it was “high polyreactivity”; in that of “QVQLVESGGGLVQAGGSLRLSCAASGGTFSTYAMGWYRQAPGKEREFVAAITRSGTSTYYADSVKGRFTISRDNAKNTVYLQMNSLKPEDTAVYYCATGEHFYRKLDYWGQGTQVTVSS”, “low polyreactivity”. “QVQLVESGGGLVQAGGSLRLSCAASGGTFSVYVMGWYRQAPGKERELVAAIRDRGVSTYYADSVKGRFTISRDNAKNTVYLQMNSEKPEDTAVSYCAAKYSYSRKPGAYYYWGQGTQVTVSS”: the “polyreactivity (PSR sort gate)” value is on record as “high polyreactivity”. In the case of “QVQLVESGGGLVQAGGSLRLSCAASGGTFTHNAMGWYRQAPGKERELVAAISSSGVRTYYADSVKGRFTISRDNAKNTVYLQMNSLKPEDTAVYYCAADRFRRLHYWTYDYWGQGTQVTVSS” it was “high polyreactivity”; in that of “QVQLVESGGGLVQAGGSLRLSCAASGGTFTKNAMGWYRQAPGKERELVAAINYSGGSTYYADSVKGRFTISRDNAKNTVYLQMNSLKPEDTAVYYCAADDYRDGFTQYDYWGQGTQVTVSS”, “low polyreactivity”. In the case of “QVQLVESGGGLVQAGGSLRLSCAASGGTFTKNPMGWYRQAPGKERELVATITFSDGSTYYADSVKGRFTISRDNAKNTVYLQMNSLKPEDTAVYYCNARRSYFLRYGVNYWGQGTQVTVSS”, the “polyreactivity (PSR sort gate)” value is recorded as “low polyreactivity”. The same measure for “QVQLVESGGGLVQAGGSLRLSCAASGGTFTRYAMGWYRQAPGKEREFVAAITFSGGSTYYADSVKGRFTISRDNAKNTVYLQMNSLKPEDTAVYYCAVRERSTYRYYYWGQGTQVTVSS”: “high polyreactivity”.

Consider “QVQLVESGGGLVQAGGSLRLSCAASGGTFTYYAMGWYRQAPGKVRELVAAISWSGGSTYYADSVKGRFTISRDIAKNSVYLQMNSLKPEDSAVYYCAADYTGHFYYYWGQGTQVTVSS”, for which the “polyreactivity (PSR sort gate)” value is recorded as “low polyreactivity”. In the case of “QVQLVESGGGLVQAGGSLRLSCAASGGTFVGNAMGWYRQAPGKERELVAAISTNSGSTYYADSVKGRFTISRDNAKNTVYLQMNSLKPEDTAVYYCATRNSSKRRGYYYWGQGTQVTVSS” it was “high polyreactivity”. In the case of “QVQLVESGGGLVQAGGSLRLSCAASGGTFVYYAMGWYRQAPGKERELVAAINWSGGSTYYADSVKGRFTISRDNAKNTVYLQMNSLKPEDTAVLLLQRSGLRRSGVWFDYWGQGTQVTVSS” it was “low polyreactivity”. The same measure for “QVQLVESGGGLVQAGGSLRLSCAASGGTFWLYTMGWYRQAPGTERELVAAITKSGGSTYYADSVKGRFTISRDNAMNTVYLQMNSLKPEDTAVYYCAARYSVYRDGYYWGQGTQVTVSS”: “high polyreactivity”; for “QVQLVESGGGLVQAGGSLRLSCAASGGTFWYYDMGWYRQAPGKERELVAAISSGGNTYYADSVKGRFTISRDNAKNTVYLQMNSLKREDNAVYYWAALPKYGSYYYYPPFDYDYWGHGTQVTVSS”: “low polyreactivity”. As to “QVQLVESGGGLVQAGGSLRLSCAASGGTFYLYAMGWYRQAPGKERELVAAISRSGGITYYADSVKGRFTISRDNAKNTVYLQMNSLKPEDTAVYYCDAAALSRYRLQEGYYWGQGTQVTVSS”, the “polyreactivity (PSR sort gate)” value is listed as “high polyreactivity”.

For the sequence “QVQLVESGGGLVQAGGSLRLSCAASGGTFYRNAMGWYRQAPGKERELVASISRTGGSTYYADSVKGRFTISRDIAKNTVYLQMNSLKPEDTAVYYCAKKQPRYSYFDNDYWGQGTQVTVSS”, the “polyreactivity (PSR sort gate)” value is “high polyreactivity”. The same measure for “QVQLVESGGGLVQAGGSLRLSCAASGGTFYRNDMGWYRQAPGKERELVAVITYRGGSTDYADSVKGRFTISRDNAKNTVYFQMNSLKPEDTAVYYCAVDYTFSYPYEDDYWGQGTQVTVSS”: “low polyreactivity”.

Source of the values: the nanobody polyreactivity screen of Harvey et al. (2022).
